Measured values reported in patent US20090016988A1.

Assays:
[1] = target: MPPT2 (proaerolysin with a uPA cleavage site in the activation sequence, an N-terminal AFAI antibody fragment and a His tag) (Aeromonas hydrophila); assay: cell-based or functional assay
[2] = target: MPPT3 (proaerolysin with a uPA cleavage site in the activation sequence, an AFAI antibody fragment attached by a uPA-cleavable linker, and a His tag) (Aeromonas hydrophila); assay: cell-based or functional assay

Substance: urokinase-type plasminogen activator (uPA) (enzyme)
- Hemolytic activity after 60 minutes (horse red blood cells, after uPA digestion) (hemolytic titer (wells showing lysis)) [1]: 4.5
- Hemolytic activity after 60 minutes (horse red blood cells, after uPA digestion) (hemolytic titer (wells showing lysis)) [2]: 8
